Here are results for 2 molecules from US20210347894A1 (JIANGSU HANSOH PHARMACEUTICAL GROUP, published 2021).

The target of experiment [1] is T1, human 4Ig-B7H3 antigen (SinoBiological cat#11188-H08H) (human, UniProt Q5ZPR3 29-461).
T1 construct: Commercial product; The entry as printed is the B7H3 extracellular region (4Ig form) followed by a His-tag; also called Human 41g-B7H3; human B7H3 antigen for detection
T1 sequence: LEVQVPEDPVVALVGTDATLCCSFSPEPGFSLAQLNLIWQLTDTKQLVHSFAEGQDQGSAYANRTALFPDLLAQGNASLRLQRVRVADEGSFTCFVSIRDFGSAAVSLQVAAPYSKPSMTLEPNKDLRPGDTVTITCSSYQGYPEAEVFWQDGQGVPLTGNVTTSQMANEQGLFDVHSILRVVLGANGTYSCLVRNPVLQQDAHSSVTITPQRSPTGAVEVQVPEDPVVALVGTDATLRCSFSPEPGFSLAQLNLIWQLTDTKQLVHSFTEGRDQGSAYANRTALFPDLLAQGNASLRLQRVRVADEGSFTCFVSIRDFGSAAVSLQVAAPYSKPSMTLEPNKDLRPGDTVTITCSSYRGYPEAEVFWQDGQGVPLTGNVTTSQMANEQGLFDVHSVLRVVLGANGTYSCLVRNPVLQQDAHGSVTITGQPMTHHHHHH
The experiment is described as follows: SPR (Biacore T200), ADC captured on Protein A chip, antigen flowed over, 1:1 Langmuir fit. From the text:
(§1) A biosensor chip Protein A (Cat.#29127556, GE) was used to affinity capture a certain amount of antibody/ADC to be tested. Series diluted human 2Ig-B7H3 antigen (Cat.#1949-B3-050/CF, R&D) and human 4Ig-B7H3 antigen (Cat.#11188-H08H, Sino Biological) were flowed through the surface of the chip. Real-time reaction signal was detected by using Biacore instrument (Biacore T200, GE) to obtain the association and dissociation curves. After completion of each cycle of dissociation, the biochip was washed and regenerated with glycine-hydrochloric acid regeneration solution (pH 1.5) (Cat.# BR-1003-54, GE). The buffer used in the experiment was HBS-EP buffer solution (pH 7.4) (Cat.# BR-1001-88, GE).
(§2) The experimental data was fitted with BIAevaluation version 4.1 GE software in a (1:1) Langmuir model to obtain affinity values.

Experiment [2] concerns the target T2, human 2Ig-B7H3 antigen (R&D cat#1949-B3-050/CF) (human, UniProt Q5ZPR3 29-245).
T2 construct: Commercial product; The entry as printed is the B7H3 extracellular region (2Ig form) followed by a His-tag; also called human B7H3 antigen for screening and detection
T2 sequence: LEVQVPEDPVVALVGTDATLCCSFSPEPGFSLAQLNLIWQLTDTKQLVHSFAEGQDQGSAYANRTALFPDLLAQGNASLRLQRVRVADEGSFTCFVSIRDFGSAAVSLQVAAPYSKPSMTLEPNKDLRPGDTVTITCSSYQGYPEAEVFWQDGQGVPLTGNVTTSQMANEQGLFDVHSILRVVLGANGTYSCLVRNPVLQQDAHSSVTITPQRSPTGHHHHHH
The experiment is described as follows: SPR (Biacore T200), antibody captured on Protein A chip, antigen flowed over, 1:1 Langmuir fit.
Source text: as §1, §2

The target of experiment [3] is T1, human 4Ig-B7H3 antigen (SinoBiological …). The experiment is described as above.
Source text: as §1, §2

B1: ADC-2 (antibody 1702DS conjugated with compound 5-A, formula FADC-2, n=7.24) (antibody, human IgG1, lambda)
heavy: not shown
light: DTVVTQEPSFSVSPGGTVTLTCGLSSGSVSTSHYPSWYQQTPGQAPRMLIYNTNTRSSGVPDRFSGSILGNKAALTITGAQADDESDYYCAIHVDRDIWVFGGGTKLTVLGQPKANPTVTLFPPSSEELQANKATLVCLISDFYPGAVTVAWKADGSPVKAGVETTKPSKQSNNKYAASSYLSLTPEQWKSHRSYSCQVTHEGSTVEKTVAPTEC
modifications: linker-drug compound 5-A (maleimide-GGFG-exatecan analog) coupled after TCEP reduction of the antibody's disulfide bonds; average n=7.24 per antibody; positions not given
notes: Antibody-drug conjugate; also called B7H3-ADC
On to B1, for which binding in experiment [1] was put at a Kd of 7.55 nM. That is a single-digit nanomolar value.

B2: h1702 antibody (antibody, human IgG1, lambda)
heavy: not shown
light: QTVVTQEPSFSVSPGGTVTLTCGLSSGSVSTSHYPSWYQQTPGQAPRMLIYNTNTRSSGVPDRFSGSILGNKAALTITGAQADDESDYYCAIHVDRDIWVFGGGTKLTVLGQPKANPTVTLFPPSSEELQANKATLVCLISDFYPGAVTVAWKADGSPVKAGVETTKPSKQSNNKYAASSYLSLTPEQWKSHRSYSCQVTHEGSTVEKTVAPTECS
notes: Fully human IgG1/lambda full-length antibody from a phage library, expressed in HEK293E cells; also called B7H3 antibody h1702; anti-B7H3 antibody
B2: the dissociation constant (Kd) in experiment [2] is 797 nM; in experiment [3], 8.55 nM.
